Results published in IntAct's records for PubMed 28325809.

B1: Pleckstrin homology domain-containing family M member 1 (Homo sapiens), Q9Y4G2 (parent)
chain: MLSVVENGLDPQAAIPVIKKKLVGSVKALQKQYVSLDTVVTSEDGDANTMCSALEAVFIHGLHAKHIRAEAGGKRKKSAHQKPLPQPVFWPLLKAVTHKHIISELEHLTFVNTDVGRCRAWLRLALNDGLMECYLKLLLQEQARLHEYYQPTALLRDAEEGEFLLSFLQGLTSLSFELSYKSAILNEWTLTPLALSGLCPLSELDPLSTSGAELQRKESLDSISHSSGSEDIEVHHSGHKIRRNQKLTASSLSLDTASSSQLSCSLNSDSCLLQENGSKSPDHCEEPMSCDSDLGTANAEDSDRSLQEVLLEFSKAQVNSVPTNGLSQETEIPTPQASLSLHGLNTSTYLHCEAPAEPLPAQAASGTQDGVHVQEPRPQAPSPLDLQQPVESTSGQQPSSTVSETAREVGQGNGLQKAQAHDGAGLKLVVSSPTSPKNKSWISEDDFYRPSREQPLESASDHPIASYRGTPGSRPGLHRHFSQEPRKNCSLGALDQACVPSPGRRQAQAAPSQGHKSFRVVHRRQMGLSNPFRGLMKLGTVERRGAMGIWKELFCELSPLEFRLYLSNEEHTCVENCSLLRCESVGPAHSDGRFELVFSGKKLALRASSQDEAEDWLDRVREALQKVRPQQEDEWVNVQYPDQPEEPPEAPQGCLSPSDLLSEPAALQGTQFDWSSAQVPEPDAIKESLLYLYMDRTWMPYIFSLSLEALKCFRIRNNEKMLSDSHGVETIRDILPDTSLGGPSFFKIITAKAVLKLQAGNAEEAALWRDLVRKVLASYLETAEEAVTLGGSLDENCQEVLKFATRENGFLLQYLVAIPMEKGLDSQGCFCAGCSRQIGFSFVRPKLCAFSGLYYCDICHQDDASVIPARIIHNWDLTKRPICRQALKFLTQIRAQPLINLQMVNASLYEHVERMHLIGRRREQLKLLGDYLGLCRSGALKELSKRLNHRNYLLESPHRFSVADLQQIADGVYEGFLKALIEFASQHVYHCDLCTQRGFICQICQHHDIIFPFEFDTTVRCAECKTVFHQSCQAVVKKGCPRCARRRKYQEQNIFA
B2: ADP-ribosylation factor-like protein 8B (Homo sapiens), Q9NVJ2 (parent)
chain: MLALISRLLDWFRSLFWKEEMELTLVGLQYSGKTTFVNVIASGQFSEDMIPTVGFNMRKVTKGNVTIKIWDIGGQPRFRSMWERYCRGVNAIVYMIDAADREKIEASRNELHNLLDKPQLQGIPVLVLGNKRDLPNALDEKQLIEKMNLSAIQDREICCYSISCKEKDNIDITLQWLIQHSKSRRS

Tests used:
[1] = variants of: B1; conditions: with arl8b_human ARL8B
[2] = variants of: B1; conditions: with rab7a_human RAB7A
[3] = variants of: B1; conditions: with arl8b_human ARL8B; remark: listed apart in the source
[4] = variants of: B1; conditions: with mlp3b_human MAP1LC3B
[5] = variants of: B1; conditions: with mlp3b_rat Map1lc3b
[6] = variants of: B2; conditions: with pkhm1_human PLEKHM1, Q9Y4G2

effect of a mutation on the interaction [1]	effect of a mutation on the interaction [2]	effect of a mutation on the interaction [3]	effect of a mutation on the interaction [4]	effect of a mutation on the interaction [5]	effect of a mutation on the interaction [6]	Variant
disrupting interaction strength	with no effect	–	–	–	–	R123A
disrupting interaction strength	with no effect	with no effect	–	–	–	H63A
disrupting interaction strength	with no effect	decreasing interaction strength	disrupting interaction strength	disrupting interaction strength	–	H60A;R117A;R119A
disrupting interaction strength	with no effect	decreasing interaction strength	–	–	–	H60A
disrupting interaction strength	with no effect	decreasing interaction strength	–	–	–	R117A;R119A
–	–	–	–	–	with no effect	Q75L
–	–	–	–	–	disrupting interaction strength	T34N
